Target: chimeric mouse h-ferritin-M6A (recombinant) (mouse | not stated)
Test: SEC; HiLoad 26/60 Superdex 200; 20 mM Tris-HCl pH 8, 200 mM KCl, 10% glycerol, 2 mM TCEP; elution volume compared with horse spleen ferritin (~440 kDa)

- stoichiometry N: 24
Substance: chimeric mouse h-ferritin-M6A (recombinant)
